Test results as given in article PMC11210195 (Frontiers in Immunology, 2024).

B1: TRIM21 PRYSPRY domain (domain or fragment, human, UniProt P19474-1 277-475, looked up)
chain: GLKKMLRTCAVHITLDPDTANPWLILSEDRRQVRLGDTQQSIPGNEERFDSYPMVLGAQHFHSGKHYWEVDVTGKEAWDLGVCRDSVRRKGHFLLSSKSGFWTIWLWNKQKYEAGTYPQTPLHLQVPPCQVGIFLDYEAGMVSFYNITDHGSLIYSFSECAFTGPLRPFFSPGFNDGGKNTAPLTLCPLNIGSQGSTDY
modifications: biotinylated where it was captured via monovalent streptavidin
notes: human TRIM21 (Ro52, RNF81), PRYSPRY domain, amino acids 277 to 475 of isoform 1; also called PS; TRIM21 PRYSPRY variant; source: E. coli BL21 DE3, purified (Ni-NTA, Superdex S-200 gel filtration) by Proteros Biostructures; not shown: His-Avi-Tag (via a (4GS)1 linker), C-terminal, kept
B2: TRIM21-coiled-coil-PRYSPRY (TRIM21-CC-PS) (domain or fragment, human, UniProt P19474-1 128-475, looked up)
chain: LEEAAQEYQEKLQVALGELRRKQELAEKLEVEIAIKRADWKKTVETQKSRIHAEFVQQKNFLVEEEQRQLQELEKDEREQLRILGEKEAKLAQQSQALQELISELDRRCHSSALELLQEVIIVLERSESWNLKDLDITSPELRSVCHVPGLKKMLRTCAVHITLDPDTANPWLILSEDRRQVRLGDTQQSIPGNEERFDSYPMVLGAQHFHSGKHYWEVDVTGKEAWDLGVCRDSVRRKGHFLLSSKSGFWTIWLWNKQKYEAGTYPQTPLHLQVPPCQVGIFLDYEAGMVSFYNITDHGSLIYSFSECAFTGPLRPFFSPGFNDGGKNTAPLTLCPLNIGSQGSTDY
modifications: biotinylated where it was captured via monovalent streptavidin
notes: human TRIM21 (Ro52, RNF81), coiled-coil and PRYSPRY domains, amino acids 128 to 475 of isoform 1; also called PRYSPRY-coiled-coil variant; source: E. coli BL21 DE3, purified (Ni-NTA, Superdex S-200 gel filtration) by Proteros Biostructures; not shown: His-Avi-Tag (via a (4GS)1 linker), C-terminal, kept

Legend:
cytokine-Fc Fusion Y436A [1] = target: cytokine-Fc Fusion Y436A (human); assay: SPR; cytokine-Fc Fusion constructs captured via anti-PGLALA F(ab')2 fragment (35-40 RU); PRYSPRY injected, two-fold series; 25°C, HBS-EP+ pH 7.4; 1:1 fit; details: both partners purified
[2] = target: the molecule itself; assay: SEC-MALS; TRIM21-CC-PS alone, 1 mg/mL, 50 µg injected, Superdex200 Increase 10/300 GL, PBS pH 7.4
cytokine-Fc Fusion Y436A [3] = target: cytokine-Fc Fusion Y436A (human); assay: SPR; cytokine-Fc Fusion constructs captured via anti-PGLALA F(ab')2 fragment at low density; TRIM21-CC-PS injected; 25°C, HBS-EP+; apparent (avidity) constants; details: both partners purified

Binder | fold change of off rate against WT (cytokine-Fc Fusion Y436A [1]) | fold change of on rate against WT (cytokine-Fc Fusion Y436A [1]) | fold decrease of affinity against mAb1 Fc WT (cytokine-Fc Fusion Y436A [1]) | t1/2 of dissociation (cytokine-Fc Fusion Y436A [1]) | stoichiometry N [2] | avidity enhancement (K_(D,AFFINITY)/K_(D,AVIDITY)) (cytokine-Fc Fusion Y436A [3]) | fold weaker against the WT avidity (cytokine-Fc Fusion Y436A [3])
B1 | 23 fold | 8 fold | 180 fold | 0.3 s |  |  | 
B2 |  |  |  |  | 2 | 14 fold | 766 fold
